In patent publication US8603949B2, “Libraries of optimized cytochrome P450 enzymes and the optimized P450 enzymes” (California Institute of Technology, priority 2003, dated 2013):
Entries after “also recorded” stand apart in the source; their conditions may differ. Each block holds one molecule with its values, some of them ahead of it.

Key:
[1] = Thermostability (loss of Soret band at increasing temperatures); assay type: physicochemical; conditions: cell extracts heated 10 minutes
Experimental: Thermostability was assayed by monitoring the loss of the Soret band at increasing temperatures. […] However, thermostability may be important for retention of catalytic activity: the two chimeras that lacked peroxygenase activity were also the least thermostable.
Cell extracts were heated in a thermocycler for 10 minutes at various temperatures, followed by cooling to 4° C. Extracts were centrifuged for 5 minutes at 3500×g to remove any precipitates. Carbon monoxide reduced difference spectroscopy was used to quantitate the amount of P450. The reduction of the carbon monoxide peak was monitored over a range of temperatures.

[2] = Peroxidase activity with ABTS and H2O2; assay type: biochemical; conditions: for Peroxidase activity: 10 mM ABTS, 20 mM H2O2, pH 5.0, activities <0.2 not detectable (N.D.)
From the text: P450s can reduce peroxide to water (and a proton) using a mechanism similar to that of peroxidases, although the intrinsic rate for P450s is many orders of magnitude slower. (Mansuy, D., Comp Biochem Physiol C Pharmacol Toxicol Endocrinol 121, 5-14 (1998)). It has been proposed that the earliest P450 function may have been as a peroxidase. (Gotoh, O., Cytochrome P450, 2nd Edition, pp. 255-272 (1993)). To investigate how recombination affects P450 peroxidase activity, the colorimetric substrate 2,2′-azino-bis(3-ethylbenzothiazoline-6-sulfonate) (ABTS) was used to monitor this reaction (Childs et al., Biochem J 145,93-103 (1975)).
This example provides an example of how one can measure peroxidase activity. Initial rates of peroxidase activity were measured by monitoring the accumulation of the radical cation of ABTS at 414 nm (Childs et al., Biochem J., 145:93-103 (1975)). Enzyme (1 μM) was mixed with 10 mM ABTS in 200 mM phosphate buffer (pH 5.0) in a cuvette at room temperature. Samples were zeroed and reactions were initiated with the addition of H2O2 to a concentration of 20 mM. The absorbance at 414 nm was monitored for 5 minutes. Rates were determined from the steepest portion of the time course. An extinction coefficient of […] for ABTS was used.

[3] = Peroxygenase activity, hydroxylation of 12-pNCA; assay type: biochemical; conditions: 250 μM 12-pNCA
Experimental: (§1) The chimeras were assayed for hydroxylation of p-nitrophenoxydodecanoic acid (12-pNCA), a fatty acid analog that is hydroxylated by CYP102A1 and CYP102A2 to yield p-nitrophenolate (Schwaneberg et al., Anal Biochem 269,359-366 (1999)). […] When hydroxylation rates for the parent CYP102 enzymes were monitored using the maximum soluble concentrations of these substrates, activity could only be detected on 2-phenoxy-ethanol.
(§2) This Example provides one method by which peroxygenase activity of a P450 enzyme may be characterized. First order rates for p-nitrophenolate accumulation were determined using 1 μM enzyme, 20 mM H2O2, 250 μM 12-pNCA and 0.5% dimethyl sulfoxide (DMSO) in 100 mM Tris-HCl (pH 8.2) at room temperature. Enzyme, substrate, buffer and DMSO were combined in a cuvette and zeroed at 410 nm. Reaction mixtures were incubated for 4 minutes and initiated by the addition of H2O2 to a final concentration of 20 mM. Initial rates were determined by monitoring the accumulation of p-nitrophenolate at 410 nm, and data from the first six seconds were used to determine initial rates. […] The extinction coefficient of p-nitrophenolate is 13,200 M^−1cm^−1 (Schwaneberg et al., Anal Biochem 269:359-366 (1999)).

[4] = Peroxygenase substrate activity profile; assay type: biochemical; conditions: 20 mM H2O2
Experimental: as §1
Chimeras were assayed for peroxygenase activity on 12-pNCA, 2-phenoxy -ethanol and allyloxy-benzene. […] Rates are reported in nmol product/nmol P450/minute. […] Those with no activity include 65-256 and 277-365. Those with new activity include 165-256, 191-335, and 43-135.
as §2
(§3) Rates on 2-phenoxy-ethanol and allyloxy-benzene were determined using 2 μM enzyme, 20 mM H2O2, 1% DMSO, and 1% acetone in 100 mM N-[2-hydroxyethyl]piperazine-N′-[3-propanesulfonic acid] (Epps) (pH 8.2) at room temperature. Substrate concentrations for 2-phenoxy-ethanol (100 mM) and allyloxy benzene (50 mM) maintained saturation. Reactions were initiated by the addition of H2O2 and quenched at appropriate times using an equal volume of a solution containing 4M urea and 100 mM NaOH. 120 μl of 0.6% 4-AAP was added, followed by mixing and addition of 120 μl of 0.6% potassium persulfate. Color was allowed to develop for 20 minutes before absorbance was read at 500 nm. Rates were determined from the linear region of the time course. The major products were determined by GC/MS to be the hemiacetal, which decomposes to phenol. The extinction coefficient for the 4-AAP/phenol complex was determined to be 4,800 M^−1cm^−1. The results can be seen in FIG. 4.

[5] = Peroxygenase activity on allyloxy-benzene (4-AAP assay); assay type: biochemical; conditions: 50 mM substrate
Experimental: as §1, §3

[6] = Library plate screen on five test substrates (4-AAP, 12-pNCA); assay type: biochemical; conditions: seven-crossover library, cell lysate, 20 mM H2O2
Experimental: These library plates were replicated and grown in 96 deep-well plates in 900 μL of LB media with 100 μg/ml ampicillin overnight at 30° C. and 250 rpm. 150 μL of this was then transferred to 850 μL of induction media (TB-media with final concentrations of 100 μg/ml ampicillin, 25 μg/ml thiamine, 0.5 mM δ-aminolevulinic acid and 0.6 mM IPTG). These were grown for 20-24 hours at 25° C. and 190 rpm, harvested by centrifugation at 5000×g for 8 minutes and frozen at -20° C. for at least 24 hours. Cells were resuspended using a pipetting robot (Multimek 96, Beckman) and lysed in 400 μL of Epps or Tris buffer (100 mM, pH 8.2) containing 0.8 mg/ml lysozyme and 2 units/mL DNaseI for 1 hour at 37° C. Plates were then spun for 8 minutes at 5000×g and 4° C. to pellet cell debris. 80 μL of lysate was transferred into 4 separate 96 well plates for each library plate. […] On one plate, high -throughput carbon monoxide spectroscopy was done in order to assess relative amounts of P450 (Otey, C. R. High-throughput carbon monoxide binding assay for cytochromes P450. In Directed Enzyme Evolution: Screening and Selection Methods, F. H. Arnold and […]. 137-139 (2003)) with 0.1 M sodium hydrosulfite being used in place of 0.4 M. The other three plates were used to assay activity on different substrates. Examples of assays that have been or could be used include the 4-AAP (Otey, C. R., and Joern, J. M. High-throughput screen for aromatic hydroxylation. In Directed Enzyme Evolution: Screening and Selection Methods, F. H. Arnold and […]. 141-148 (2003)), 12-pNCA (Schwaneberg et al., Anal. Biochem., 269:359-366 (1999), NBP assay ([…], et al., J Biomol Screen, 9:141-146 (2004)), 7-ethoxyresorufin (Sieber et al., Nat Biotechnol., 19:456-460 (2001)), vivid substrate assays (Marks et al., Assay Drug Dev Technol 1, 73-81 (2002); Marks et al., AAPS PharmSci 5, E18 (2003)), and purpald assays (Peters et al., J Am Chem Soc 125:13442-13450 (2003)). Since the heme domains were being used, the hydrogen peroxide was used to drive the reactions via the peroxide shunt (Cirino, P. C., and Arnold, F. H., Advanced Synthesis & Catalysis 344, 932-937 (2002)). The 4-AAP assay detects phenol-like compounds and consists of the addition of 40 μL of a 3.5× substrate solution (containing substrate concentrations dependent for each substrate) to 80 μL of lysate. […] Then a 7×(140 mM) H2O2 hydrogen peroxide solution was added resulting in a final concentration of 20 mM hydrogen peroxide. The reaction was mixed and left at room temperature without shaking for two hours and then quenched with 140 μL of 0.1 m NaOH and 4 M Urea. 38 μL of 0.6% 4-aminoantipyrine was added followed by blanking of the 96-well plate reader at 500 nm. 38 μL of 0.6% potassium persulfate was added and after 20 minutes the A500 was read. […]

substrate activity profile relative to parents [4]: parent-like profiles
B1: Chimera 169-197: CYP102A1 heme domain with residues 169-197 from CYP102A2 (protein)
chain: TIKEMPQPKTFGELKNLPLLNTDKPVQALMKIADELGEIFKFEAPGRVTRYLSSQRLIKEACDESRFDKNLSQALKFVRDFAGDGLATSWTHEKNWKKAHNILLPSFSQQAMKGYHAMMVDIAVQLVQKWERLNADEHIEVPEDMTRLTLDTIGLCGFNYRFNSFYRDTPHPFINSMVRALDEAMHQMQRLDVQDKLYDENKRQFQEDIKVMNDLVDKIIADRKASGEQSDDLLTHMLNGKDPETGEPLDDENIRYQIITFLIAGHETTSGLLSFALYFLVKNPHVLQKAAEEAARVLVDPVPSYKQVKQLKYVGMVLNEALRLWPTAPAFSLYAKEDTVLGGEYPLEKGDELMVLIPQLHRDKTIWGDDVEEFRPERFENPSAIPQHAFKPFGNGQRACIGQQFALHEATLVLGMMLKHFDFEDHTNYELDIKETLTLKPEGFVVKAKSKKIPLGGIPSPST
modifications: Chimeric Cytochrome P450 heme group sequence from Bacillus megaterium and Bacillus subtilis
notes: CYP102A1 heme domain with residues 169-197 from CYP102A2
Tm [1]: 52 °C | Peroxidase activity [2]: 100.3 nmol product/nmol P450/min | fold increase of peroxidase activity over the most active parent ([2]; ABTS): approximately 40 fold | peroxidase activity relative to parents ([2]; ABTS): highest peroxidase and peroxygenase rates; also recorded: significantly higher peroxidase activities | peroxygenase activity on 12-pNCA [3]: most active; also recorded: significant increase

B2: Chimera 165-256: CYP102A1 heme domain with residues 165-256 from CYP102A2 (protein)
chain: TIKEMPQPKTFGELKNLPLLNTDKPVQALMKIADELGEIFKFEAPGRVTRYLSSQRLIKEACDESRFDKNLSQALKFVRDFAGDGLATSWTHEKNWKKAHNILLPSFSQQAMKGYHAMMVDIAVQLVQKWERLNADEHIEVPEDMTRLTLDTIGLCGFNYRFNSYYRETPHPFINSMVRALDEAMHQMQRLDVQDKLMVRTKRQFRYDIQTMFSLVDSIIAERRANGDQDEKDLLARMLNVEDPETGEKLDDENIRFQIITFLIAGHETTSGLLSFALYFLVKNPHVLQKAAEEAARVLVDPVPSYKQVKQLKYVGMVLNEALRLWPTAPAFSLYAKEDTVLGGEYPLEKGDELMVLIPQLHRDKTIWGDDVEEFRPERFENPSAIPQHAFKPFGNGQRACIGQQFALHEATLVLGMMLKHFDFEDHTNYELDIKETLTLKPEGFVVKAKSKKIPLGGIPSPST
modifications: Chimeric Cytochrome P450 heme group sequence from Bacillus megaterium and Bacillus subtilis
notes: CYP102A1 heme domain with residues 165-256 from CYP102A2
Tm [1]: 48 °C | Peroxidase activity [2]: 16.1 nmol product/nmol P450/min | peroxidase activity relative to parents ([2]; ABTS): significantly higher peroxidase activities | peroxygenase activity on allyloxy-benzene [5]: highest rates | substrate activity profile relative to parents [4]: broadest substrate specificity; also recorded: new activity; also recorded: active on all three substrates; also recorded: gained novel activity

B3: A3: third parent P450 of the seven-crossover library (protein, listed as Bacillus subtilis)
chain: KQASAIPQPKTYGPLKNLPHLEKEQLSQSLWRIADELGPIFRFDFPGVSSVFVSGHNLVAEVCDEKRFDKNLGKGLQKVREFGGDGLATSWTHEPNWQKAHRILLPSFSQKAMKGYHSMMLDIATQLIQKWSRLNPNEEIDVADDMTRLTLDTIGLCGFNYRFNSFYRDSQHPFITSMLRALKEAMNQSKRLGLQDKMMVKTKLQFQKDIEVMNSLVDRMIAERKANPDENIKDLLSLMLYAKDPVTGETLDDENIRYQIITFLIAGHETTSGLLSFAIYCLLTHPEKLKKAQEEADRVLTDDTPEYKQIQQLKYIRMVLNETLRLYPTAPAFSLYAKEDTVLGGEYPISKGQPVTVLIPKLHRDQNAWGPDAEDFRPERFEDPSSIPHHAYKPFGNGQRACIGMQFALQEATMVLGLVLKHFELINHTGYELKIKEALTIKPDDFKITVKPRKTAAINVQRKEQA
activity on test substrates incl. novel substrates (diphenyl ether, allyloxy-benzene) [6]: no activity towards any of the substrates tested
